{"source": "paper PMC5148173", "key": {"[1]": {"target": "N-terminally hexahistidine tagged wt N_TAIL (C-terminal domain of the MeV nucleoprotein N, aa 401-525) (measles virus (Edmonston B)) (UniProt P04851)", "experiment": "ITC", "details": "domain or fragment"}, "[2]": {"target": "N-terminally hexahistidine tagged N_TAIL R490S (measles virus (Edmonston B)) (UniProt P04851)", "experiment": "ITC; N_TAIL (25-180 uM) in the cell, XD (300-960 uM) in the microsyringe, 19 injections of 2 uL; 20 C; 10 mM Tris/HCl pH 8, 150 mM NaCl; single set of sites model"}, "[3]": {"target": "N-terminally hexahistidine tagged N_TAIL R497G (measles virus (Edmonston B)) (UniProt P04851)", "experiment": "ITC; N_TAIL (25-180 uM) in the cell, XD (300-960 uM) in the microsyringe, 19 injections of 2 uL; 20 C; 10 mM Tris/HCl pH 8, 150 mM NaCl; single set of sites model"}, "[4]": {"target": "N_TAIL S491L fused to a Gaussia luciferase fragment (glu-PCA) (measles virus) (UniProt P04851)", "experiment": "split reporter (BiFC, NanoBiT); KD estimated from the glu-PCA luminescence with the empirically determined equation relating luminescence and the ITC KD values (Fig 4)"}}, "data": [{"substance": "C-terminally hexahistidine tagged MeV XD (X domain of the phosphoprotein P, aa 459-507) (from UniProt P03422 459-507)", "values": [{"measurement": "Kd", "setting": "[1]", "result": 3, "unit": "µM"}]}, {"substance": "C-terminally hexahistidine tagged MeV XD (X domain of the phosphoprotein P, aa 459-507) (from UniProt P03422 459-507) (domain or fragment)", "values": [{"measurement": "Kd", "setting": "[2]", "result": 20, "unit": "µM"}, {"measurement": "fold decrease in the binding affinity against wt N TAIL", "setting": "[2]", "result": 7, "unit": "fold"}, {"measurement": "Kd", "setting": "[3]", "result": 44, "unit": "µM"}]}, {"substance": "XD of the monomeric split-luciferase reassembly assay (glu-PCA) (from UniProt P03422 376-507) (domain or fragment)", "values": [{"measurement": "Kd", "setting": "[4]", "result": 85, "unit": "µM"}]}]}
